Laboratory results from the supplement of paper PMC10724198.

How the values were obtained:
[1] = test system: Saccharomyces cerevisiae; experiment: protein stability index of tFT-peptide fusion in wild type (PSI (0-1 scale)); higher = more stable (slower turnover); settings: genetic background: wild type
[2] = test system: Saccharomyces cerevisiae; experiment: protein stability index of tFT-peptide fusion in deletion strain of DOA10 (PSI (0-1 scale)); higher = more stable (slower turnover)
Protocol: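 MPS profiling in S. cerevisiae of two library types built from selected 12-aa C-degron peptides (IN1, IN2, LN1, LN3, VN2, R1-R5, W1-W3, Atg1 and Rpa12 C-termini): saturation mutagenesis libraries and C-terminal +1 capping libraries (13 aa). Each peptide is fused to the C-terminus of a sfGFP-mCherry timer, after a GGGS linker. Cells are FACS-sorted into 8 mCherry/sfGFP bins and sequenced. PSI runs from 0 (unstable) to 1 (stable), measured once in wild type and in the das1Δ or doa10Δ background.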
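Throughout, for protein stability index of tFT-peptide fusion in deletion strain of DOA10: PSI per variant is the weighted mean of its sequencing read distribution over the sorted stability bins, counting only variants with over 10 reads summed across bins.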
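Throughout, for protein stability index of tFT-peptide fusion in wild type: PSI derived as read-weighted mean over the 8 sorting bins, only variants exceeding 10 total reads kept, mCherry placed adjacent to the peptide and sfGFP distal.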

Sequence	protein stability index [1]	protein stability index [2]
RSLRVLLPLYPR	0.65	0.69
RSLRVLLPLYFRH	0.284	0.616
GLYMCCVGCWFR	0.303	0.504
RLTRLDAIYFRI	0.379	0.663
GLYMCSVGCWFY	0.398	0.52
MSLRVLLPLYFR	0.314	0.622
AITLPMCWLLLR	0.0817	0.736
RVTRLDAINFRI	0.683	0.729
GLYMCSNGCWFR	0.397	0.703
GLYMCAVGCWFR	0.279	0.54
RSLRVLLLLYFR	0.217	0.432
GLYMCSVGCSFR	0.621	0.651
AITLPTCPLLLR	0.289	0.681
MITLPMCPLLLR	0.302	0.626
RSLRVLNPLYFR	0.359	0.684
GDYMCSVGCWFR	0.462	0.692
GLYMCSVSCWFR	0.338	0.446
RSLRVLWPLYFR	0.181	0.676
RSLRVLLPLYFRF	0.195	0.584
AITLWMCPLLLR	0.267	0.611
RSLRVLLPLYIR	0.255	0.596
RVTRLDAIYFRIV	0.0601	0.114
CPVSLPILLFFR	0.0943	0.602
GLYMCSPGCWFR	0.246	0.679

Sequence	protein stability index [1]	protein stability index [2]
GLYMCSVGCTFR	0.609	0.64
RVTRIDAIYFRI	0.337	0.693
RSRRVLLPLYFR	0.297	0.702
AITLPQCPLLLR	0.293	0.661
CLVSLPILVFFR	0.0876	0.512
RSLRVTLPLYFR	0.159	0.676
CLVSLPIHLFFR	0.0666	0.669
RVTRLGAIYFRI	0.317	0.634
RVTRLDAIYFRIP	0.247	0.371
RSLRVLLPLYFRQ	0.205	0.606
RSLRVLLPLYFL	0.319	0.516
RVTRLDAIYFRIG	0.335	0.408
CLPSLPILLFFR	0.0469	0.632
GLLMCSVGCWFR	0.22	0.409
GLYYCSVGCWFR	0.249	0.605
AIFLPMCPLLLR	0.278	0.631
AITGPMCPLLLR	0.497	0.666
CLVSLPILWFFR	0.566	0.61
GLYMCSVGAWFR	0.451	0.667
RVTRLDAIYFCI	0.378	0.435
RVTRVDAIYFRI	0.442	0.68
RQLRVLLPLYFR	0.216	0.665
AITLGMCPLLLR	0.373	0.661
CLVSLPSLLFFR	0.0935	0.667

Sequence	protein stability index [1]	protein stability index [2]
GLYMCSVGCIFR	0.587	0.637
RCTRLDAIYFRI	0.46	0.674
RSLRVLLPGYFR	0.624	0.673
RSLRVLLPLYWR	0.301	0.658
CLVSLPILFFFR	0.499	0.59
RVLRVLLPLYFR	0.369	0.634
YLVSLPILLFFR	0.0822	0.538
RSLRVLLPLEFR	0.601	0.679
RVTRLDFIYFRI	0.171	0.596
RSLAVLLPLYFR	0.34	0.68
CLVSLPILLFFM	0.299	0.479
QSLRVLLPLYFR	0.283	0.659
FSLRVLLPLYFR	0.268	0.608
CLVSLPIVLFFR	0.0839	0.581
CLVSLPKLLFFR	0.0835	0.662
AITLNMCPLLLR	0.261	0.662
CLVSLPILLSFR	0.187	0.631
RSLRVLLPDYFR	0.64	0.672
CLVSLPILHFFR	0.628	0.667
GMYMCSVGCWFR	0.271	0.713
RSLRVLLPLYFRV	0.164	0.441
CLVSLPIPLFFR	0.0774	0.643
VVTRLDAIYFRI	0.302	0.671
ALYMCSVGCWFR	0.351	0.638

Sequence	protein stability index [1]	protein stability index [2]
GLIMCSVGCWFR	0.197	0.39
CLVSLPILLVFR	0.0722	0.527
RSLRVLLTLYFR	0.391	0.511
RVTRLDAIYFPI	0.703	0.731
GLYMCSVGCWDR	0.627	0.665
GLYMCSCGCWFR	0.46	0.674
CLVSLPELLFFR	0.176	0.692
AITLPMCPLLLH	0.502	0.621
CLVKLPILLFFR	0.06	0.6
VLVSLPILLFFR	0.0972	0.56
GLYMISVGCWFR	0.17	0.341
AITLPMCPLLLRN	0.281	0.659
RVTRLDWIYFRI	0.164	0.495
DLYMCSVGCWFR	0.453	0.697
CLVSSPILLFFR	0.272	0.645
GLYQCSVGCWFR	0.434	0.676
GLMMCSVGCWFR	0.237	0.506
RVIRLDAIYFRI	0.331	0.653
GLYSCSVGCWFR	0.451	0.676
CLVSLPILLKFR	0.178	0.652
RVTRLDAIYFRP	0.643	0.697
AITLPMCPLLER	0.648	0.741
AIHLPMCPLLLR	0.278	0.65
RVTRLDIIYFRI	0.271	0.645

Sequence	protein stability index [1]	protein stability index [2]
AITLPMCPLFLR	0.184	0.67
CLVSLMILLFFR	0.256	0.398
CEVSLPILLFFR	0.066	0.635
RSPRVLLPLYFR	0.334	0.681
RSLRVALPLYFR	0.189	0.675
GLYMCSVLCWFR	0.274	0.369
AITKPMCPLLLR	0.458	0.651
CLVFLPILLFFR	0.0802	0.416
RVTQLDAIYFRI	0.524	0.685
CLVSLPILLHFR	0.286	0.655
GLWMCSVGCWFR	0.315	0.54
RVQRLDAIYFRI	0.426	0.666
ELVSLPILLFFR	0.0794	0.633
RRLRVLLPLYFR	0.292	0.668
GNYMCSVGCWFR	0.405	0.699
AITLPMCPYLLR	0.545	0.675
AITLPMCPLLLN	0.135	0.189
RVTRLDALYFRI	0.32	0.705
RILRVLLPLYFR	0.386	0.654
AITSPMCPLLLR	0.491	0.672
